# Measured values: IntAct's records for PubMed 29039417
# B1: BBSome complex member BBS2 (Homo sapiens), Q9BXC9 (parent)
# chain: MLLPVFTLKLRHKISPRMVAIGRYDGTHPCLAAATQTGKVFIHNPHTRNQHVSASRVFQSPLESDVSLLSINQAVSCLTAGVLNPELGYDALLVGTQTNLLAYDVYNNSDLFYREVADGANAIVLGTLGDISSPLAIIGGNCALQGFNHEGSDLFWTVTGDNVNSLALCDFDGDGKKELLVGSEDFDIRVFKEDEIVAEMTETEIVTSLCPMYGSRFGYALSNGTVGVYDKTSRYWRIKSKNHAMSIHAFDLNSDGVNELITGWSNGKVDARSDRTGEVIFKDNFSSAIAGVVEGDYRMDGHIQLICCSVDGEIRGYLPGTAEMRGNLMDTSAEQDLIRELSQKKQNLLLELRNYEENAKAELASPLNEADGHRGIIPANTRLHTTLSVSLGNETQTAHTELRISTSNDTIIRAVLIFAEGIFTGESHVVHPSIHNLSSSICIPIVPPKDVPVDLHLKAFVGYRSSTQFHVFESTRQLPRFSMYALTSLDPASEPISYVNFTIAERAQRVVVWLGQNFLLPEDTHIQNAPFQVCFTSLRNGGHLHIKIKLSGEITINTDDIDLAGDIIQSMASFFAIEDLQVEADFPVYFEELRKVLVKVDEYHSVHQKLSADMADHSNLIRSLLVGAEDARLMRDMKTMKSRYMELYDLNRDLLNGYKIRCNNHTELLGNLKAVNQAIQRAGRLRVGKPKNQVITACRDAIRSNNINTLFKIMRVGTASS
# partner: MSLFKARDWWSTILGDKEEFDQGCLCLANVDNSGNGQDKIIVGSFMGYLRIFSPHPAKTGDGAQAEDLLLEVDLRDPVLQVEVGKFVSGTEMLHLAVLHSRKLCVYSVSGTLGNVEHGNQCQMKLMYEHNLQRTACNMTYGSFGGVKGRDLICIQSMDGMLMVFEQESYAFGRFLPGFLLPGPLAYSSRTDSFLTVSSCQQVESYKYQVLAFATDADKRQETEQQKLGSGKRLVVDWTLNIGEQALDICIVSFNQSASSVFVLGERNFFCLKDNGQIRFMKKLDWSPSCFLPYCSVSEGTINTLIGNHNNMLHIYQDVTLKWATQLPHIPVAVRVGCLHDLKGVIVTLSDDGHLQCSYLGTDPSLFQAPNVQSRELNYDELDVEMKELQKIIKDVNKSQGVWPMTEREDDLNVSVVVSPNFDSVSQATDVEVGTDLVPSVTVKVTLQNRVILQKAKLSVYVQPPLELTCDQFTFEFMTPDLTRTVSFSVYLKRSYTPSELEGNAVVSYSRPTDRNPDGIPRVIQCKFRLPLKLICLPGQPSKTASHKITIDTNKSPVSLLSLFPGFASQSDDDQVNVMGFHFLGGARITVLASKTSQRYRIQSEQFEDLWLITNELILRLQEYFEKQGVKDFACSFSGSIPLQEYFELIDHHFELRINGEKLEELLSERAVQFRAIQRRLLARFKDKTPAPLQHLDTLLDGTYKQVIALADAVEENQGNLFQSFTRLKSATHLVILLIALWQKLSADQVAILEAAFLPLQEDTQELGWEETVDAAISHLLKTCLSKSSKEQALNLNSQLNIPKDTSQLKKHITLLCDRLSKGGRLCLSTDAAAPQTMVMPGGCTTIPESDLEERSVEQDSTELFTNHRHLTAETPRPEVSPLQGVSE
# Variants of: B1
# Settings: with pthb1_human BBS9, Q3SYG4
row,Variant,effect of a mutation on the interaction
1,V389A,with no effect
2,K691E,with no effect
3,Q396E,with no effect
4,T666A,with no effect
5,H456E,with no effect
6,I554A,with no effect
7,R539K,with no effect
8,R539A,with no effect
9,M614K,with no effect
10,P521E,with no effect
11,L620K,with no effect
12,E553A,with no effect
13,D490E,with no effect
14,C698A,with no effect
15,P479E,disrupting interaction strength
16,M645A,with no effect
17,V582A,with no effect
18,L478P,disrupting interaction strength
19,S407F,disrupting interaction strength
20,V598A,with no effect
21,V598K,with no effect

row,Variant,effect of a mutation on the interaction
1,L654E,with no effect
2,I567A,with no effect
3,I621A,with no effect
4,R643K,with no effect
5,H604A,with no effect
6,L669A,with no effect
7,L669E,with no effect
8,V430A,disrupting interaction strength
9,T410K,with no effect
10,A364K,with no effect
11,Q608E,with no effect
12,H470K,with no effect
13,L457E,disrupting interaction strength
14,I417E,with no effect
15,Q508K,with no effect
16,P448A,with no effect
17,V512K,with no effect
18,L486A,with no effect
19,A697K,with no effect
20,I556A,with no effect
21,S573A,with no effect

row,Variant,effect of a mutation on the interaction
1,H399A,with no effect
2,S570K,with no effect
3,A631E,with no effect
4,A631K,with no effect
5,Q346K,with no effect
6,G688K,with no effect
7,K458E,with no effect
8,K458A,with no effect
9,E356S,disrupting interaction strength
10,E356A,with no effect
11,E473K,with no effect
12,I503K,with no effect
13,I503A,with no effect
14,E591A,with no effect
15,P366A,with no effect
16,V461E,disrupting interaction strength
17,V461A,disrupting interaction strength
18,K547A,with no effect
19,P495E,with no effect
20,G627K,with no effect
21,R622K,with no effect

row,Variant,effect of a mutation on the interaction
1,S433E,with no effect
2,P530A,with no effect
3,L593K,with no effect
4,Q335K,with no effect
5,D636A,with no effect
6,L647K,with no effect
7,S537E,with no effect
8,D559E,with no effect
9,T467E,with no effect
10,G683K,with no effect
11,I377E,with no effect
12,H431E,with no effect
13,N671E,with no effect
14,S721K,with no effect
15,G462D,disrupting interaction strength
16,F460E,disrupting interaction strength
17,F460A,disrupting interaction strength
18,K673E,with no effect
19,I561A,with no effect
20,R413E,with no effect

# Variants of: B1
# Settings: with pthb1_human BBS9, Q3SYG4
# Remark: another data set of the same source
row,Variant,effect of a mutation on the interaction
1,L455E,disrupting interaction strength
2,S365R,disrupting interaction strength
3,I568E,disrupting interaction strength
4,G688K,disrupting interaction strength

# Variants of: B1
# Settings: with pthb1_human BBS9, Q3SYG4
# Remark: another data set of the same source
row,Variant,effect of a mutation on the interaction
1,L455E,with no effect
